Experimental data: PMC12670495

Target: ANT4044-DOTA (human)
Experiment: SPR; Biacore T200, single-cycle kinetics, 25 °C, HBS-EP+; antibody-DOTA captured on a Protein G chip (~50 RU); PSMA as analyte, three-point 2-fold dilution 12.5-50 nM, 40 uL/min; association 200 s, dissociation 1500 s; Langmuir 1:1 fit

Sequence of ANT4044-DOTA (human) (heavy, as listed by the source, chain 1 of 2): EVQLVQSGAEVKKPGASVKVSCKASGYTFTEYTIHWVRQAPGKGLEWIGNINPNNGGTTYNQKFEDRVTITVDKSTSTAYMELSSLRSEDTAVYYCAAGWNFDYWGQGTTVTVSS
Sequence of ANT4044-DOTA (human) (light, as listed by the source, chain 2 of 2): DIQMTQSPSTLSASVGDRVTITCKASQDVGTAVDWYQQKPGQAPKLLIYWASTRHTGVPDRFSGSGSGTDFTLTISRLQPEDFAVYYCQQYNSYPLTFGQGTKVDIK

- Kd: 2.68 nM
- koff: 0.000187 s⁻¹
- kon: 69700 M⁻¹ s⁻¹
Substance: cynomolgus PSMA (natural protein)
